Assays:
[1] = tested on: hGR G421 421 to Gly (Homo sapiens); experiment: pulldown; settings: relative to hGR-SB
[2] = tested on: hGR G423 423 to Gly (Homo sapiens); experiment: pulldown; settings: relative to hGR-SB
[3] = tested on: hGR G424 424 to Gly (Homo sapiens); experiment: pulldown; settings: relative to hGR-SB
[4] = tested on: hGR G426 D426G (Homo sapiens); experiment: pulldown; settings: relative to hGR-SB
[5] = tested on: hGR G431 C431G (Homo sapiens); experiment: pulldown; settings: relative to hGR-SB
[6] = tested on: hGR G432 432 to Gly (Homo sapiens); experiment: pulldown; settings: relative to hGR-SB
[7] = tested on: hGR G433 433 to Gly (Homo sapiens); experiment: pulldown; settings: relative to hGR-SB
[8] = tested on: hGR G437 437 to Gly (Homo sapiens); experiment: pulldown; settings: relative to hGR-SB
[9] = tested on: hGR G438 438 to Gly (Homo sapiens); experiment: pulldown; settings: relative to hGR-SB
[10] = tested on: hGR G441 441 to Gly (Homo sapiens); experiment: pulldown; settings: relative to hGR-SB
[11] = tested on: hGR G442 K442G (Homo sapiens); experiment: pulldown; settings: relative to hGR-SB; binds but transcriptionally inactive
[12] = tested on: hGR G444 444 to Gly (Homo sapiens); experiment: pulldown; settings: relative to hGR-SB
[13] = tested on: hGR G445 445 to Gly (Homo sapiens); experiment: pulldown; settings: relative to hGR-SB
[14] = tested on: hGR G446 446 to Gly (Homo sapiens); experiment: pulldown; settings: relative to hGR-SB; may be unstable in vitro
[15] = tested on: hGR G447 447 to Gly (Homo sapiens); experiment: pulldown; settings: relative to hGR-SB
[16] = tested on: hGR G450 450 to Gly (Homo sapiens); experiment: pulldown; settings: relative to hGR-SB
[17] = tested on: hGR G453 453 to Gly (Homo sapiens); experiment: pulldown; settings: relative to hGR-SB
[18] = tested on: hGR G455 455 to Gly (Homo sapiens); experiment: pulldown; settings: relative to hGR-SB; may be unstable in vitro
[19] = tested on: hGR G457 457 to Gly (Homo sapiens); experiment: pulldown; settings: relative to hGR-SB
[20] = tested on: hGR G460 460 to Gly (Homo sapiens); experiment: pulldown; settings: relative to hGR-SB
[21] = tested on: hGR G462 462 to Gly (Homo sapiens); experiment: pulldown; settings: relative to hGR-SB
[22] = tested on: hGR G463 463 to Gly (Homo sapiens); experiment: pulldown; settings: relative to hGR-SB
[23] = tested on: hGR G465 465 to Gly (Homo sapiens); experiment: pulldown; settings: relative to hGR-SB
[24] = tested on: hGR G467 467 to Gly (Homo sapiens); experiment: pulldown; settings: relative to hGR-SB; may be unstable in vitro
[25] = tested on: hGR G470 470 to Gly (Homo sapiens); experiment: pulldown; settings: relative to hGR-SB
[26] = tested on: hGR G471 471 to Gly (Homo sapiens); experiment: pulldown; settings: relative to hGR-SB
[27] = tested on: hGR G473 473 to Gly (Homo sapiens); experiment: pulldown; settings: relative to hGR-SB
[28] = tested on: hGR G474 474 to Gly (Homo sapiens); experiment: pulldown; settings: relative to hGR-SB
[29] = tested on: hGR G476 476 to Gly (Homo sapiens); experiment: pulldown; settings: relative to hGR-SB
[30] = tested on: hGR G477 477 to Gly (Homo sapiens); experiment: pulldown; settings: relative to hGR-SB
[31] = tested on: hGR G479 479 to Gly (Homo sapiens); experiment: pulldown; settings: relative to hGR-SB
[32] = tested on: hGR G480 480 to Gly (Homo sapiens); experiment: pulldown; settings: relative to hGR-SB
[33] = tested on: hGR G481 481 to Gly (Homo sapiens); experiment: pulldown; settings: relative to hGR-SB
[34] = tested on: hGR G486 486 to Gly (Homo sapiens); experiment: pulldown; settings: relative to hGR-SB; may be unstable in vitro (10% activity in cells)
[35] = tested on: hGR delta420-451 deletion between residues 420 and 451 (printed positions are the non-deleted junction residues) (Homo sapiens); experiment: pulldown; settings: relative to hGR-SB
[36] = tested on: hGR delta450-487 deletion between residues 450 and 487 (printed positions are the non-deleted junction residues) (Homo sapiens); experiment: pulldown; settings: relative to hGR-SB
[37] = tested on: hGR-SB (human glucocorticoid receptor, wild-type equivalent) (Homo sapiens); experiment: pulldown; settings: immunoprecipitation DNA binding, reference
[38] = tested on: rTRalpha-Bm+ (rat thyroid hormone receptor alpha) BamHI linker at amino acid 21 (Rattus norvegicus), P63059-2; experiment: cell_activity; settings: TRE-CAT, T3; which TRE (rGH or palindromic) not stated
Chain of rTRalpha-Bm+ (rat thyroid hormone receptor alpha) BamHI linker at amino acid 21 (Rattus norvegicus), P63059-2 (P63059 whole entry, looked up, the tested form may be a part): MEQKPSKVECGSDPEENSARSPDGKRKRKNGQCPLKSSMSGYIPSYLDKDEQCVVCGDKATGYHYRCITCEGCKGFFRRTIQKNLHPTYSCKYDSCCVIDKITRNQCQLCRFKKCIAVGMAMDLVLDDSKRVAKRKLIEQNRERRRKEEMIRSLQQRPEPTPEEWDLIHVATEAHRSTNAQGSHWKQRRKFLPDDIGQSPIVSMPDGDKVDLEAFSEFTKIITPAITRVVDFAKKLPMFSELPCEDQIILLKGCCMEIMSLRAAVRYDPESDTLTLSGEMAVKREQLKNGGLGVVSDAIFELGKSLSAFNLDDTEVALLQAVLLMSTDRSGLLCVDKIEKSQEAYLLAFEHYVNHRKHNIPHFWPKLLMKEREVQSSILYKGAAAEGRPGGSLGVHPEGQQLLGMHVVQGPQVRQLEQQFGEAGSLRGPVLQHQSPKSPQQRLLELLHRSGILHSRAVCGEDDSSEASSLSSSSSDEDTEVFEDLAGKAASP

[39] = biological target: G-gal-G (hGR with DNA binding domain replaced by GAL4 1-74) (Homo sapiens / Saccharomyces cerevisiae) (UniProt P04150+P04386); experiment: cell_activity
Chain of G-gal-G (hGR with DNA binding domain replaced by GAL4 1-74) (Homo sapiens / Saccharomyces cerevisiae) (P04150 other isoform, or with tags, fused parts or gaps, chain 1 of 2): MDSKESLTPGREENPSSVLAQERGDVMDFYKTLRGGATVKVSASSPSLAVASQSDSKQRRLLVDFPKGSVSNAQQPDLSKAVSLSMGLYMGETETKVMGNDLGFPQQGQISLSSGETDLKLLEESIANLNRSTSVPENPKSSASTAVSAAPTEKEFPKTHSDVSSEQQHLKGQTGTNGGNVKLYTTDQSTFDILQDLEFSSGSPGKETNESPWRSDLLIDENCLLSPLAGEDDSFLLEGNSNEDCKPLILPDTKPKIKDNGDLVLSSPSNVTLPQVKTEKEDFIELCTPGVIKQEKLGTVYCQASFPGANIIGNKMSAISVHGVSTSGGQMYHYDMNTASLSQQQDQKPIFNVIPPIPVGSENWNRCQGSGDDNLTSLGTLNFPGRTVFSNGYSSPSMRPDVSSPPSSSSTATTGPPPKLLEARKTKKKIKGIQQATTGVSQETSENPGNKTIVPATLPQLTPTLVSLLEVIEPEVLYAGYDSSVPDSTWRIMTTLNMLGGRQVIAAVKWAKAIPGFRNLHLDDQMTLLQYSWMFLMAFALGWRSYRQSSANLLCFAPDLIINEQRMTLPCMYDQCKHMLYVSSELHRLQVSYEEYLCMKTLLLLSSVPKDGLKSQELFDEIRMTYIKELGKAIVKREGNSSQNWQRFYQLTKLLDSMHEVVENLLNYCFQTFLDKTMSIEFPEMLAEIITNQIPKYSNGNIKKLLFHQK
Chain of G-gal-G (hGR with DNA binding domain replaced by GAL4 1-74) (Homo sapiens / Saccharomyces cerevisiae) (P04386 1-74, chain 2 of 2): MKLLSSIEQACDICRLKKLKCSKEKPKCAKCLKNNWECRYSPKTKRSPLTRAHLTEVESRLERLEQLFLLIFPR

[40] = biological target: GAL4 (Saccharomyces cerevisiae) (UniProt P04386); experiment: cell_activity; settings: CAT reporter
Chain of GAL4 (Saccharomyces cerevisiae) (P04386 whole entry, the tested form may be a part): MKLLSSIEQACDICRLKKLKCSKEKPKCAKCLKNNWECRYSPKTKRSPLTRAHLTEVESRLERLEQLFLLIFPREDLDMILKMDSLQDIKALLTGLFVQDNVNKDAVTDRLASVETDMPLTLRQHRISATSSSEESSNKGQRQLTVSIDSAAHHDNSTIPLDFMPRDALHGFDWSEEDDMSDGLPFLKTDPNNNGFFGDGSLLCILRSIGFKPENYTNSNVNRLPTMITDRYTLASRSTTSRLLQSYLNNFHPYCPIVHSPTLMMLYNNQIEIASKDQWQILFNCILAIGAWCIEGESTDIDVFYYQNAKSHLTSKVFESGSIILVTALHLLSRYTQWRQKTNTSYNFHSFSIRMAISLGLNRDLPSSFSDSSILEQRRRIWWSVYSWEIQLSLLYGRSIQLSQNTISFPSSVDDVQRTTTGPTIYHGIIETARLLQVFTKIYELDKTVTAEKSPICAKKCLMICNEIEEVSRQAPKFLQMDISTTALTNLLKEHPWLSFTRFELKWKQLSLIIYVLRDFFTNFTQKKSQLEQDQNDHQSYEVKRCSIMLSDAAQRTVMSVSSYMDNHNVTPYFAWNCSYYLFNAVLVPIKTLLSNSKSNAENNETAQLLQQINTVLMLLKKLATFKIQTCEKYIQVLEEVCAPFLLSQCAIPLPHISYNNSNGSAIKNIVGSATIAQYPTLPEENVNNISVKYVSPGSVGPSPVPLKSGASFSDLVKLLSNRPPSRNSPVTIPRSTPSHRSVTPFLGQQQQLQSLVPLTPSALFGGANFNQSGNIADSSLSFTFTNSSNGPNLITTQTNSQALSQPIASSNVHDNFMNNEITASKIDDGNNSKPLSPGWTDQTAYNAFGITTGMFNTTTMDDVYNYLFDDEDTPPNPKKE

GRE-containing DNA fragment
binding signal [1]: < 1% | binding signal [2]: < 1% | binding signal [3]: 1% | binding signal [4]: 75% | binding signal [5]: 10% | binding signal [6]: 30% | binding signal [7]: 1% | binding signal [8]: 8% | binding signal [9]: < 1% | binding signal [10]: < 1% | binding signal [11]: 60% | binding signal [12]: 1% | binding signal [13]: < 1% | binding signal [14]: 6% | binding signal [15]: 2% | binding signal [16]: 50% | binding signal [17]: 60% | binding signal [18]: 6% | binding signal [19]: 2% | binding signal [20]: 90% | binding signal [21]: 40% | binding signal [22]: 1% | binding signal [23]: 1% | binding signal [24]: 6% | binding signal [25]: 4% | binding signal [26]: 6% | binding signal [27]: < 1% | binding signal [28]: 95% | binding signal [29]: < 1% | binding signal [30]: 1% | binding signal [31]: 40% | binding signal [32]: 50% | binding signal [33]: 3% | binding signal [34]: 1% | binding signal [35]: 1% | binding signal [36]: 1% | binding signal [37]: 100%

TCAGGTCATGACCTGA (double strand) [TRE of TRE-CAT reporter (palindromic TRE)]
activity [38]: 100%

deltaMTV-CAT promoter (no GAL4 site, GREs deleted)
activity ([39]; relative to deltaMTV-GAL-CAT, possible cryptic site): 5%

deltaMTV-GAL-CAT promoter with synthetic GAL4 site 17MX
activity ([39]; with hormone): 500 fold | activity [40]: 20 fold

— patent US5217867
